The text below walks through data of patent US20260102487A1 (Amgen, published 2026).

Experiment in all cases: biolayer interferometry (Octet Qk384), antibody captured on anti-human Fc (AHC) sensors, antigen 7.8-500 nM in solution, 1:1 fit, KD = kd/ka
Assay [1] deals with T1, cynomolgus IL-2Rγ (recombinant protein and on cells) (cynomolgus, UniProt A0A2K5VGJ6 23-254).
T1 construct: also called cynomolgus IL-2RG
T1 sequence: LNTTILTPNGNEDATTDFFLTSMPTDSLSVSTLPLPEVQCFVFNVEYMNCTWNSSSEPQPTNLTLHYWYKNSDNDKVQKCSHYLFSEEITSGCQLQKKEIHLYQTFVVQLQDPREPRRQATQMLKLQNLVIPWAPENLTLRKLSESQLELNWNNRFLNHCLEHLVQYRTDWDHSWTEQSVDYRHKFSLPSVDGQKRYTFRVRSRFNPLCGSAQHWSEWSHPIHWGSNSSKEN
On the procedure: (§1) All kinetics measurement experiments were performed on a ForteBio Octet Qk384 instrument using anti-human Fc capture (AHC, 18-5005) sensors. The bispecific heavy chain-only antibodies and antigens were diluted to final concentrations in Kinetics buffer (0.02% Tween20, 0.1% BSA, 0.05% sodium azide, 1X PBS). Kinetics measurements were against the following antigens: human IL-2RB (AcroBiosystems), human TL-2RG (AcroBiosystems), cynomolgus IL-2RB (Sino Biological), cynomolgus IL-2RG (expressed and purified in house using ExpiCHO expression system followed by Ni-NTA his-tag purification). The antibodies were loaded on the AHC sensors at 5 μg/mL for maximum loading. Following a short baseline in Kinetics buffer, the sensors were exposed to a series of analyte concentrations (7.8 nM to 500 nM) for association step and background subtraction was used to correct for sensor drifting. Dissociation was monitored in Kinetics buffer. The capture surfaces were regenerated for 60s. All experiments were performed with shaking at 1000 rpm. ForteBio's data analysis software was used to fit the data to a 1:1 binding model to extract an association rate and dissociation rate. The KD was calculated using the ratio kd/ka.

Assay [2] concerns the target T2, human IL-2Rγ (recombinant protein and on cells) (human, UniProt P31785 23-262, limits assumed).
T2 construct: recombinant protein and of cells together; also called IL2RG; CD132
T2 sequence: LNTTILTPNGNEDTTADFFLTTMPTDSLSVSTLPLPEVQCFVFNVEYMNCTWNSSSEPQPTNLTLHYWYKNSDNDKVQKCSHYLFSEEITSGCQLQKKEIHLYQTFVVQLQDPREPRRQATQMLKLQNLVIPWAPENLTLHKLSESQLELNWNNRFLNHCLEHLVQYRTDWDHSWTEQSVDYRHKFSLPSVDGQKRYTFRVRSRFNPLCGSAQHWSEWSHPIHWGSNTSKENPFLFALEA
On the procedure: as §1

The target in the next assay is T3, IL2RB, Human.
T3 construct: Same protein as m17, but here as recombinant protein in solution, not on CHO cells; also called human IL-2RB (AcroBiosystems); IL-2Rβ
T3 receptor chain: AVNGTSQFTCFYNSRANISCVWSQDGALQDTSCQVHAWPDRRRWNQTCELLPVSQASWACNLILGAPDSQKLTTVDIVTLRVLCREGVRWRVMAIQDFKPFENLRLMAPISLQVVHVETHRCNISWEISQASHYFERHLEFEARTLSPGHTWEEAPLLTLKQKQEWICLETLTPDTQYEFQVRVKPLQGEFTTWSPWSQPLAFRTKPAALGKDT
As to the method: as §1

In another assay the target is T4, IL2RB, Cyno (Macaca fascicularis, UniProt Q38J85).
T4 construct: Same protein as m18, but here as recombinant protein in solution, not on CHO cells; also called cynomolgus IL-2RB (Sino Biological)
T4 sequence (receptor chain, looked up): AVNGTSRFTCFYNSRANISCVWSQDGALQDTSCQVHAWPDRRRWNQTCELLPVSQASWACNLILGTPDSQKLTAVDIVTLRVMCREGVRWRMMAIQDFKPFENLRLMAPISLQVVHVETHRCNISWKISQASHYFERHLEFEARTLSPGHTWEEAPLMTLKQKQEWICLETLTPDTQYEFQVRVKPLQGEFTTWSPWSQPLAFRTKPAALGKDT
On the procedure: as §1

B1: BsAb-2 (IL2RB_F09G**IL2RG_F16B) (bispecific antibody, human IgG4, V domains shown)
V domain 1: QVQLQESGPGLVKSSETLSLTCTVSGGSISSSDWWSWVRQPPGKGLEWIGEIDHSGSTNYNPSLMSRVTISVDKSKNQFSLKLSSVTAADTAVYFCARGSWELTDAFDIRGQGTLVTVSS
V domain 2: QVQLVESGGGLVKPGGSLRLSCAASGFTFSDYYMSWIRQAPGKGLEWVSYISSSGSTIYYADSVKGRFTISRDNAKNSLYLQMNSLRAEDTAVYYCARGDAVSITGDYRGQGTLVTVSS
notes: Heavy chain-only bispecific on silenced, stabilised human IgG4 Fc, knobs-into-holes, no light chains; not shown: C-terminal His-tag on the knob chain
Regarding B1, the Kd (in general, the free concentration of one partner at which half of the binding sites on the other are occupied at equilibrium, for simple one-to-one binding) worked out at 50.2 nM in assay [1]; 17.1 nM in assay [2]; 93.4 nM with IL2RB, Human; 16.7 nM with IL2RB, Cyno.

B2: BsAb-6 (IL2RB_F18E**IL2RG_F16A) (bispecific antibody, human IgG4, V domains shown)
V domain 1: QVQLVESGGGVVQPGRSLRLSCAASGFTFSSYGMHWVRQAPGKEREWVAVISYDGSNKYYTDSVKGRFTISRDNSKNTLYLEMNSLRAEDTAVYYCARDLDYDVLTGDPVGGFDIWGQGTLVTVSS
V domain 2: QVQLVESGGGLVKPGGSLRLSCAASGFTFSDYYMSWIRQAPGKGLEWVSSISSSGDTIYYADSVQGRFTLSRDNAENSLFLQMNSLRAEDTAVYYCARGDAVSITGDYRGQGTLVTVSS
notes: as for B1
As for B2, the dissociation constant Kd in assay [1] is 5.42 nM; in assay [2], 1.88 nM; in the assay with IL2RB, Human, 53.8 nM; in the assay with IL2RB, Cyno, 55.2 nM.

B3: BsAb-4 (IL2RB_F09G**IL2RG_F18A) (bispecific antibody, human IgG4, V domains shown)
V domain 1: QVQLQESGPGLVKSSETLSLTCTVSGGSISSSDWWSWVRQPPGKGLEWIGEIDHSGSTNYNPSLMSRVTISVDKSKNQFSLKLSSVTAADTAVYFCARGSWELTDAFDIRGQGTLVTVSS
V domain 2: QVQLVESGGDLVKPGGSLRLSCAASGFTFSDYYMSWLRQAPGKELEWVSHISSSGTTTYYADSVEGRFTITRDNAKNSLYLQMNSLRAEDTAVYYCARGAAVAPGFDSRGQGTLVTVSS
notes: as for B1
On to B3, for which the Kd stood at 5.81 nM in assay [1]; 2.93 nM in assay [2]; 82.4 nM with IL2RB, Human; 17.3 nM with IL2RB, Cyno.

B4: BsAb-3 (IL2RB_F09G**IL2RG_F16C) (bispecific antibody, human IgG4, V domains shown)
V domain 1: QVQLQESGPGLVKSSETLSLTCTVSGGSISSSDWWSWVRQPPGKGLEWIGEIDHSGSTNYNPSLMSRVTISVDKSKNQFSLKLSSVTAADTAVYFCARGSWELTDAFDIRGQGTLVTVSS
V domain 2: QVQLVESGGGLVKPGGSLRLSCAASGFTFNDYYMSWIRQAPGKGLEWVSHISSSGSTIYYADSVKGRFTVSRDNANNSLYLQMHSLRAEDTAVYYCARGDAVSITGDYRGQGTLVTVSS
notes: as for B1
As for B4, the dissociation constant (Kd) in assay [1] amounted to 3.58 nM; in assay [2], 1.43 nM; with IL2RB, Human, 96.7 nM; with IL2RB, Cyno it was 16 nM.

B5: BsAb-5 (IL2RB_F09K**IL2RG_F16B) (bispecific antibody, human IgG4, V domains shown)
V domain 1: QVQLQESSPGLVKPSETLSLTCTVSGGSISSSNWWSWVRQPPGKGLEWIGEISHSGSTNYNPSLKSRVTISVDKSKNQFSLRLSSVTAADTAVYFCGRGSWELTDAFDIRGQGTLVTVSS
V domain 2: QVQLVESGGGLVKPGGSLRLSCAASGFTFSDYYMSWIRQAPGKGLEWVSYISSSGSTIYYADSVKGRFTISRDNAKNSLYLQMNSLRAEDTAVYYCARGDAVSITGDYRGQGTLVTVSS
notes: as for B1
Turning to B5, the Kd in assay [1] is 41.5 nM; in assay [2], 20.1 nM; with IL2RB, Human, 182 nM; in the assay with IL2RB, Cyno, 16.5 nM.

B6: BsAb-1 (IL2RB_F09C**IL2RG_F16A) (bispecific antibody, human IgG4, V domains shown)
V domain 1: QVQLQESGPGLVKPSGTLSLTCAVSGGSISSSDWWSWVRQPPGKGLEWIGEIDHSGSTNYNPSLMSRVTISVDKSKNQFSLKLSSVTAADTAVYFCGRGSWELSDAFDIRGQGTLVTVSS
V domain 2: QVQLVESGGGLVKPGGSLRLSCAASGFTFSDYYMSWIRQAPGKGLEWVSSISSSGDTIYYADSVQGRFTLSRDNAENSLFLQMNSLRAEDTAVYYCARGDAVSITGDYRGQGTLVTVSS
notes: as for B1
As to B6, the equilibrium dissociation constant (Kd) came to 4.87 nM in assay [1]; 1.79 nM in assay [2]; 18.5 nM with IL2RB, Human; 10.7 nM in the assay with IL2RB, Cyno.
